These results are taken from patent US20150030609A1, “DIAGNOSIS AND TREATMENT OF TRAUMATIC BRAIN INJURY” (UNIVERSITY OF SOUTH FLORIDA, priority 2011, published 2015).

The test system of series [1] is primary neuronal cultures. As to the kind of experiment: LDH assay of cell death in primary neuronal cultures exposed to normoxia or OGD with recombinant CCL20. Format: cell-based, rat. Particulars: 200 ng recombinant CCL20, 24 h. As to the method: Cortices from E18 rat embryos were dissociated with a solution of 0.25% trypsin/2.21 mM EDTA for 10 min at 37° C. The solution was triturated to obtain a uniform single cell suspension. After centrifugation, the supernatant was aspirated off and the cells were re-suspended in DMEM (Mediatech, Mannasas, Va.). Trypan blue exclusion was used to count viable cells and 3×10^5 cells in a final volume of 1 mL were seeded on 24 well poly-L-lysine treated culture plates. After 24 h, the medium was changed to neurobasal complete (neurobasal medium (Invitrogen), B-27 (Invitrogen), 0.05 mM L-glutamine (Mediatech) and cells were cultured for 7 days. Cells were used for oxygen glucose deprivation (OGD) experiments following one medium change, as determined by experimental grouping.
Primary cells previously seeded onto glass coverslips were randomly assigned to one of five conditions: OGD (DMEM without glucose)+vehicle, OGD+CCL20 (200 ng; Rad Systems, Minneapolis, Minn.), normoxia (DMEM with glucose) only, normoxia+vehicle, or normoxia+CCL20. […] The medium from each well was collected, clarified by centrifugation, and lactate dehydrogenase (LDH) analyzed immediately.
Cell death in culture was determined using the lactate dehydrogenase (LDH) assay (Takara Bio, Inc., Madison, Wis.). […] Plates were incubated for 30 min at 25° C. and absorbances were read on a microplate reader at a 548 nm wavelength. […]

For series [2], the system named is primary oligodendrocyte (OL) cultures. Briefly: LDH assay of cell death in primary oligodendrocyte cultures exposed to normoxia or OGD with recombinant CCL20. Format: cell-based, rat. As to the method: Mixed glial cultures were prepared from postnatal day 2 rats and oligodendrocytes (OL) cultures were purified using the shaking and differential adherence method as previously described (26). Cell preparations were seeded (1.5×10^7) into flasks, OLs were purified from these preparations after 8 DIV and plated onto glass poly-l-lysine-treated coverslips. Following a 7 day proliferation period, the PDGF-AA was withdrawn for 5 days to induce OL differentiation into the mature phenotype. Experiments were conducted within three weeks.
Primary cells previously seeded onto glass coverslips were randomly assigned to one of five conditions: OGD (DMEM without glucose)+vehicle, OGD+CCL20 (200 ng; Rad Systems, Minneapolis, Minn.), normoxia (DMEM with glucose) only, normoxia+vehicle, or normoxia+CCL20. Cells undergoing OGD were placed in an airtight hypoxic chamber. The chamber was then flushed with hypoxic gas (95% N2, 4% CO2, 1% O2; Airgas, Tampa, Fla.) for 15 min and […] for the duration of exposure. Normoxic cells were maintained in a standard tissue culture incubator. Cultures were subjected to OGD or normoxia for 24 h at 37° C. The medium from each well was collected, clarified by centrifugation, and lactate dehydrogenase (LDH) analyzed immediately.
Cell death in culture was determined using the lactate dehydrogenase (LDH) assay (Takara Bio, Inc., Madison, Wis.). Briefly, 100 μl of tissue culture medium from each experimental group was added to a 96-well plate and 100 μl of LDH reagent was added to each well. Plates were incubated for 30 min at 25° C. and absorbances were read on a microplate reader at a 548 nm wavelength. The absorbance of medium only wells was subtracted from the total absorbance of each experimental treatment group to control for background LDH activity.
Briefly, rat primary neurons or OLs were exposed to normoxia or OGD in the presence of 200 ng recombinant CCL20 or vehicle. Following the exposure, culture medium was collected and the LDH assay was performed to assess cellular death.

Entries after “also recorded” stand apart in the source; their conditions may differ.

For the substance “CCL20: recombinant CC chemokine ligand 20 (CCL20, MIP-3α), purchased chemokine applied at 200 ng to cultured cells”, the “LDH release / neuronal viability” value in series [1] (normoxia) is given as “did not affect neuronal viability; also recorded: had no effect”. In addition, the “LDH release / cell death in neurons” value in series [1] (oxygen glucose deprivation (OGD), relative to OGD alone) was “significantly increased; also recorded: increased lactate dehydrogenase (LDH) release”. Also, the “LDH release / cellular toxicity in OL cultures” value in series [2] (normoxia, 200 ng recombinant CCL20, 24 h, vs normoxia without CCL20) is given as “elicited toxicity to OLs; also recorded: increased LDH release”. In series [2] (oxygen glucose deprivation (OGD), 200 ng recombinant CCL20, 24 h, relative to OGD alone), the “LDH release / cell death in OL cultures” value is listed as “significantly increased; also recorded: further enhanced OGD-induced cellular toxicity”. For the same substance, the “toxicity to cultured oligodendrocytes” value in series [2] (summary statement, conditions not given) is listed as “toxic to cultured oligodendrocytes”.
